According to the Human Domainome abundance scans (Beltran et al. 2025):

B1: Zinc finger homeobox protein 4, residues 2183 to 2238; numbered along this chain, Q86UP3 (parent)
chain: SSRTRFTDYQLRVLQDFFDTNAYPKDDEIEQLSTVLNLPTRVIVVWFQNARQKARK

Variants of: B1
Experiment: abundance fitness (aPCA) (normalised: wild type 0, dead -1); higher = more abundant; growth selection in yeast, the domain comes from the species named
Settings: Homo sapiens

Abundance fitness of substitutions, site by site:
D8: F -0.361 | C -0.136 | G -0.225 | T -0.257 | N -0.351 | I -0.511 | R -0.309 | P 0.096 | M -0.125 | L -0.229 | S -0.315 | H 0.124 | A -0.106 | W -0.58 | V -0.282 | Q 0.103 | Y -0.662 | E -0.151
L14: N -1.15 | Q -1.02 | E -1.07 | Y -1.08 | C -0.181 | I -0.184 | W -0.895 | T -0.93 | F -0.433 | S -0.731 | G -0.876 | A -0.793 | V -0.206 | P -0.931 | M 0.049 | R -0.911
V13: W -0.377 | C -0.181 | R 0.079 | N -0.064 | G 0.047 | D 0.079 | H 0.203 | I -0.001 | Q 0.057 | P -1.02 | F -0.056 | M 0.44 | S -0.068 | T 0.013 | Y 0.092 | A -0.012
Q10: G -0.69 | I -0.391 | E -0.297 | A -0.459 | W -0.826 | L -0.736 | V -0.547 | K -0.512 | M -0.14 | F -0.928 | D -0.454 | Y -0.787 | T -0.176 | C -0.395 | H -0.118 | S -0.335 | R -0.657
L11: I -0.031 | P -1.19 | V -0.024 | D 0.066 | R -0.26 | Y -0.194 | A -0.108 | H -0.204 | M -0.061 | C -0.341 | E 0.095 | N 0.053 | G -0.016 | F -0.011 | S 0.138 | T -0.063
F17: E -0.252 | K -0.094 | M -0.004 | Y -0.196 | I -0.135 | N 0.049 | T -0.086 | P -1 | Q 0.051 | L -0.12 | A -0.006 | S -0.097 | D -0.591 | H 0.079 | R 0.02 | V -0.25 | G -0.243
D19: K -0.074 | R -0.147 | G -0.032 | W -0.292 | S -0.131 | C -0.236 | H -0.173 | Q -0.071 | A 0.108 | F -0.146 | Y -0.171 | P -0.43 | L -0.028 | E -0.235 | T 0.164 | M -0.061 | N -0.087 | I -0.234
F6: W -0.257 | T -0.266 | A -0.654 | P -0.697 | C -0.094 | Q -0.568 | M 0.111 | N -0.375 | I -0.09 | L -0.122 | V -0.133 | E -0.344 | H -0.328 | D -0.09 | K -0.522 | G -0.335 | Y -0.124 | R -0.726
T20: H -0.179 | E -0.22 | K 0.133 | G -0.041 | C 0.002 | M -0.101 | P -0.57 | V -0.199 | N -0.058 | A 0.108 | D -0.205 | S -0.047 | R 0.072 | F -0.503 | L -0.205 | W -0.158 | I -0.308 | Q -0.196
R12: I -0.623 | F -0.81 | H -0.166 | Y -0.702 | A -0.263 | T -0.066 | N -0.017 | S -0.203 | M -0.631 | P -0.608 | G -0.147 | V -0.544 | L -0.309
